Data from article PMC12416549 (2024).

T1: TNFR1 (Homo sapiens, UniProt P19438)
T1 chain: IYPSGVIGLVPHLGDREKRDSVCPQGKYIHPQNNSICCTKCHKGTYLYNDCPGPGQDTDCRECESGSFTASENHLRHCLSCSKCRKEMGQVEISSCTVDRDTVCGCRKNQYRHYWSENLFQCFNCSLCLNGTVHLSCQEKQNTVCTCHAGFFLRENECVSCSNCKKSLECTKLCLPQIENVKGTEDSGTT


Target: T1, TNFR1
Assay: yeast display SC50

apparent Kd (screen) [pM]	Binder
653	L75R (designed binder) MTLQELLREEALRRAEAEAFRYALELLAEKFPEQKEYLLDLAEEIESQIRSLSGVDVEDVRKFLDKEWAWVKELRAEHPAELAEVEAARAARLAELRAEVEAKVAA
539	R89K (designed binder) MTLQELLREEALRRAEAEAFRYALELLAEKFPEQKEYLLDLAEEIESQIRSLSGVDVEDVRKFLDKEWAWVKELLAEHPAELAEVEAAKAARLAELRAEVEAKVAA
593	R61V (designed binder) MTLQELLREEALRRAEAEAFRYALELLAEKFPEQKEYLLDLAEEIESQIRSLSGVDVEDVVKFLDKEWAWVKELLAEHPAELAEVEAARAARLAELRAEVEAKVAA
10400	R61Y (designed binder) MTLQELLREEALRRAEAEAFRYALELLAEKFPEQKEYLLDLAEEIESQIRSLSGVDVEDVYKFLDKEWAWVKELLAEHPAELAEVEAARAARLAELRAEVEAKVAA
490	E101D (designed binder) MTLQELLREEALRRAEAEAFRYALELLAEKFPEQKEYLLDLAEEIESQIRSLSGVDVEDVRKFLDKEWAWVKELLAEHPAELAEVEAARAARLAELRAEVDAKVAA
12500	W68D (designed binder) MTLQELLREEALRRAEAEAFRYALELLAEKFPEQKEYLLDLAEEIESQIRSLSGVDVEDVRKFLDKEDAWVKELLAEHPAELAEVEAARAARLAELRAEVEAKVAA
653	E99C (designed binder) MTLQELLREEALRRAEAEAFRYALELLAEKFPEQKEYLLDLAEEIESQIRSLSGVDVEDVRKFLDKEWAWVKELLAEHPAELAEVEAARAARLAELRACVEAKVAA
790	K62E (designed binder) MTLQELLREEALRRAEAEAFRYALELLAEKFPEQKEYLLDLAEEIESQIRSLSGVDVEDVREFLDKEWAWVKELLAEHPAELAEVEAARAARLAELRAEVEAKVAA
446	K62Y (designed binder) MTLQELLREEALRRAEAEAFRYALELLAEKFPEQKEYLLDLAEEIESQIRSLSGVDVEDVRYFLDKEWAWVKELLAEHPAELAEVEAARAARLAELRAEVEAKVAA
718	A76K (designed binder) MTLQELLREEALRRAEAEAFRYALELLAEKFPEQKEYLLDLAEEIESQIRSLSGVDVEDVRKFLDKEWAWVKELLKEHPAELAEVEAARAARLAELRAEVEAKVAA
539	E99K (designed binder) MTLQELLREEALRRAEAEAFRYALELLAEKFPEQKEYLLDLAEEIESQIRSLSGVDVEDVRKFLDKEWAWVKELLAEHPAELAEVEAARAARLAELRAKVEAKVAA
653	L93T (designed binder) MTLQELLREEALRRAEAEAFRYALELLAEKFPEQKEYLLDLAEEIESQIRSLSGVDVEDVRKFLDKEWAWVKELLAEHPAELAEVEAARAARTAELRAEVEAKVAA
790	A102T (designed binder) MTLQELLREEALRRAEAEAFRYALELLAEKFPEQKEYLLDLAEEIESQIRSLSGVDVEDVRKFLDKEWAWVKELLAEHPAELAEVEAARAARLAELRAEVETKVAA
539	E95K (designed binder) MTLQELLREEALRRAEAEAFRYALELLAEKFPEQKEYLLDLAEEIESQIRSLSGVDVEDVRKFLDKEWAWVKELLAEHPAELAEVEAARAARLAKLRAEVEAKVAA
956	V60N (designed binder) MTLQELLREEALRRAEAEAFRYALELLAEKFPEQKEYLLDLAEEIESQIRSLSGVDVEDNRKFLDKEWAWVKELLAEHPAELAEVEAARAARLAELRAEVEAKVAA
790	E84R (designed binder) MTLQELLREEALRRAEAEAFRYALELLAEKFPEQKEYLLDLAEEIESQIRSLSGVDVEDVRKFLDKEWAWVKELLAEHPAELARVEAARAARLAELRAEVEAKVAA
869	P79Y (designed binder) MTLQELLREEALRRAEAEAFRYALELLAEKFPEQKEYLLDLAEEIESQIRSLSGVDVEDVRKFLDKEWAWVKELLAEHYAELAEVEAARAARLAELRAEVEAKVAA
446	L93H (designed binder) MTLQELLREEALRRAEAEAFRYALELLAEKFPEQKEYLLDLAEEIESQIRSLSGVDVEDVRKFLDKEWAWVKELLAEHPAELAEVEAARAARHAELRAEVEAKVAA
539	K62Q (designed binder) MTLQELLREEALRRAEAEAFRYALELLAEKFPEQKEYLLDLAEEIESQIRSLSGVDVEDVRQFLDKEWAWVKELLAEHPAELAEVEAARAARLAELRAEVEAKVAA

Further lines, the binder ahead of its results:

Binder	apparent Kd (screen) [pM]
L24Q (designed binder) MTLQELLREEALRRAEAEAFRYAQELLAEKFPEQKEYLLDLAEEIESQIRSLSGVDVEDVRKFLDKEWAWVKELLAEHPAELAEVEAARAARLAELRAEVEAKVAA	790
A19M (designed binder) MTLQELLREEALRRAEAEMFRYALELLAEKFPEQKEYLLDLAEEIESQIRSLSGVDVEDVRKFLDKEWAWVKELLAEHPAELAEVEAARAARLAELRAEVEAKVAA	539
D56W (designed binder) MTLQELLREEALRRAEAEAFRYALELLAEKFPEQKEYLLDLAEEIESQIRSLSGVWVEDVRKFLDKEWAWVKELLAEHPAELAEVEAARAARLAELRAEVEAKVAA	1690
D56C (designed binder) MTLQELLREEALRRAEAEAFRYALELLAEKFPEQKEYLLDLAEEIESQIRSLSGVCVEDVRKFLDKEWAWVKELLAEHPAELAEVEAARAARLAELRAEVEAKVAA	956
L6Y (designed binder) MTLQEYLREEALRRAEAEAFRYALELLAEKFPEQKEYLLDLAEEIESQIRSLSGVDVEDVRKFLDKEWAWVKELLAEHPAELAEVEAARAARLAELRAEVEAKVAA	5310
E36D (designed binder) MTLQELLREEALRRAEAEAFRYALELLAEKFPEQKDYLLDLAEEIESQIRSLSGVDVEDVRKFLDKEWAWVKELLAEHPAELAEVEAARAARLAELRAEVEAKVAA	490
E43K (designed binder) MTLQELLREEALRRAEAEAFRYALELLAEKFPEQKEYLLDLAKEIESQIRSLSGVDVEDVRKFLDKEWAWVKELLAEHPAELAEVEAARAARLAELRAEVEAKVAA	790
A17R (designed binder) MTLQELLREEALRRAEREAFRYALELLAEKFPEQKEYLLDLAEEIESQIRSLSGVDVEDVRKFLDKEWAWVKELLAEHPAELAEVEAARAARLAELRAEVEAKVAA	539
L39D (designed binder) MTLQELLREEALRRAEAEAFRYALELLAEKFPEQKEYLDDLAEEIESQIRSLSGVDVEDVRKFLDKEWAWVKELLAEHPAELAEVEAARAARLAELRAEVEAKVAA	8560
A11F (designed binder) MTLQELLREEFLRRAEAEAFRYALELLAEKFPEQKEYLLDLAEEIESQIRSLSGVDVEDVRKFLDKEWAWVKELLAEHPAELAEVEAARAARLAELRAEVEAKVAA	718
I45H (designed binder) MTLQELLREEALRRAEAEAFRYALELLAEKFPEQKEYLLDLAEEHESQIRSLSGVDVEDVRKFLDKEWAWVKELLAEHPAELAEVEAARAARLAELRAEVEAKVAA	956
E10I (designed binder) MTLQELLREIALRRAEAEAFRYALELLAEKFPEQKEYLLDLAEEIESQIRSLSGVDVEDVRKFLDKEWAWVKELLAEHPAELAEVEAARAARLAELRAEVEAKVAA	1160
L3P (designed binder) MTPQELLREEALRRAEAEAFRYALELLAEKFPEQKEYLLDLAEEIESQIRSLSGVDVEDVRKFLDKEWAWVKELLAEHPAELAEVEAARAARLAELRAEVEAKVAA	2730
F20C (designed binder) MTLQELLREEALRRAEAEACRYALELLAEKFPEQKEYLLDLAEEIESQIRSLSGVDVEDVRKFLDKEWAWVKELLAEHPAELAEVEAARAARLAELRAEVEAKVAA	1690
L38N (designed binder) MTLQELLREEALRRAEAEAFRYALELLAEKFPEQKEYNLDLAEEIESQIRSLSGVDVEDVRKFLDKEWAWVKELLAEHPAELAEVEAARAARLAELRAEVEAKVAA	1860
S47I (designed binder) MTLQELLREEALRRAEAEAFRYALELLAEKFPEQKEYLLDLAEEIEIQIRSLSGVDVEDVRKFLDKEWAWVKELLAEHPAELAEVEAARAARLAELRAEVEAKVAA	956
